Biological target: the molecule itself
Assay: SEC

B1: UVR8 mutant W198/250/302F (6Wd + 4Wc), on the W400F background (receptor)
chain: MAEDMAADEVTAPPRKVLIISAGASHSVALLSGDIVCSWGRGEDGQLGHGDAEDRPSPTQLSALDGHQIVSVTCGADHTVAYSQSGMEVYSWGWGDFGRLGHGNSSDLFTPLPIKALHGIRIKQIACGDSHCLAVTMEGEVQSWGRNQNGQLGLGDTEDSLVPQKIQAFEGIRIKMVAAGAEHTAAVTEDGDLYGWGFGRYGNLGLGDRTDRLVPERVTSTGGEKMSMVACGWRHTISVSYSGALYTYGFSKYGQLGHGDLEDHLIPHKLEALSNSFISQISGGWRHTMALTSDGKLYGWGFNKFGQVGVGNNLDQCSPVQVRFPDDQKVVQVSCGWRHTLAVTERNNVFAWGRGTNGQLGIGESVDRNFPKIIEALSVDGASGQHIESSNIDPSSGKSFVSPAERYAVVPDETGLTDGSSKGNGGDISVPQTDVKRVRI
  binding result: binds
